Assay results reported in US20200199244A1 (published 2020).
Values joined by “and” are separate entries in the source; they are usually repeats but may differ in a detail not shown here. Identical values can stand only once.

Target: T1, human CD40 (BMS, CY24FEB06-01) (human, UniProt P25942 21-193)
T1 construct: Soluble reagent of the bead and ELISA RBA; It is detected with an anti-human IgG (Fc) mAb, so it may be a CD40-Ig fusion
Experiment: ELISA RBA, competition with IZ-CD40L;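 also: Neutravidin-coated 384-well plate, dAb–human CD40 complex bound for 2 h at room temperature, absorbance read at 450 nm after HCl stop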

T1 sequence (P25942 21-193 limits assumed): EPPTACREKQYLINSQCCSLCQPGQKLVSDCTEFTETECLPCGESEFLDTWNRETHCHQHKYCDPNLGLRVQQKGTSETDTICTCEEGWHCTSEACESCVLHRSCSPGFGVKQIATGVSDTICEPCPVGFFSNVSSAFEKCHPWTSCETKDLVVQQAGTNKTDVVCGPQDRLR

Row | Binder | EC50
1 | BMS3h-56-26 (other, dAb, single VH) VH: EVQLLESGGGLVQPGGSLRLSCAASGFTFRDYEMWWVRRAPGKGLERVSAINPQGTRTYYADSVMGRFTISRDNSKNTLYLQMNSLRAEDTAVYYCAKLPFMFDDRGQGTLVTVSS | 5 nM
2 | BMS3h-56-28 (other, dAb, single VH) VH: EVQLLESGGGLVQPGGSLRLSCAASGFTFAGYELWWVRQAPGKGLERVSAINPQGTRTYYADSVMGRFTISRDNSKNTLYLQMNSLRAEDTAVYYCAKLPFTFDDWGQGTLVTVSS | 8.9 nM
3 | BMS3h-198-9 (other, dAb, single VH) VH: EVQLLESGGGLVQPGGSLRLSCAASGFTFAGYEMWWVRQAPGKGLERVSAISGSGGSTYYADSVKGRFTISRDDSKNTLYLQMNSLRAEDTAVYYCAKEPYSFDYWGQGTLVTVSS | 20 nM
4 | BMS3h-56-29 (other, dAb, single VH) VH: EVQLLESGGGLVQPGGSLRLSCAASGFTFAGYELWWVRQAPGKGLERVSAINPQGTRTYYADSVMGRFTISRDNSKNTLYLQMNSLRAEDTAVYYCAKLPFMFDDRGQGTLVTVSS | 9.7 nM
5 | BMS3h-56-31 (other, dAb, single VH) VH: EVQLLESGGGLVQPGGSLRLSCAASGFTFAGYEMWWFRQAPGKGLERVSAINPQGTRTYYADSVMGRFTISRDNSKNTLYLQMNSLRAEDTAVYYCAKLPFMFDDRGQGTLVTVSS | 61 nM
6 | BMS3h-56-30 (other, dAb, single VH) VH: EVQLLESGGGLVQPGGSLRLSCAASGFTFAGYEMWWFRQAPGKGLERVSAINPQGTRTYYADSVMGRFTISRDNSKNTLYLQMNSLRAEDTAVYYCAKLPFTFDDWGQGTLVTVSS | 24.2 nM
7 | BMS3h-198-31 (other, dAb, single VH) VH: EVQLLESGGGLVQPGGSLRLSCAASGFTFAGYEMWWVRQAPGKGLERVSAISGSGGSTYYADSVKGRFTISRDNSKNTLYLQMNSLRAEDTAVYHCAKEPYSYDYWGQGTLVTVSS | 6.1 nM
8 | BMS3h-198-34 (other, dAb, single VH) VH: EVQLLESGGGLVQPGGSLRLSCAASGFTFAGYEMWWVRQAPGKGLERVSAISGSGGSTYYADSVKGRFTISRDDSKNTLYLQMNSLRAEDTAVYYCAKDPYSFDNWGQGTLVTVSS | 32.6 nM
9 | BMS3h-198-32 (other, dAb, single VH) VH: EVQLLESGGGLVQPGGSLRLSCAASGFTFAGYEMWWFRQAPGKGLERVSAISGSGGSTYYADSVKGRFTISRDNSKNTLYLQMNSLRAEDTAVYYCAKDPYSFDNWGQGTLVTVSS | 24.7 nM
10 | BMS3h-198-33 (other, dAb, single VH) VH: EVQLLESGGGLVQPGGSLRLSCAASGFTFAGYEMWWVRQAPGKGLERVSAISGSGGSTYYADSVKGRFTISRDDSKNTLYLQMNSLRAEDTAVYYCAKEPYSYDYWGQGTLVTVSS | 8.7 nM
11 | BMS3h-198-17 (other, dAb, single VH) VH: EVQLLESGGGLVQPGGSLRLSCAASGFTFAGYEMWWVRQAPGKGLERVSAISGSGGSTYYADSVKGRFTISRDDSKNTLYLQMNSLRAEDTAVYYCARDPYSFDYWGQGTLVTVSS | 20 nM
12 | BMS3h-198-10 (other, dAb, single VH) VH: EVQLLESGGGLVQPGGSLRLSCAASGSTIAGYEMWWVRQAPGKGLERVSAISGSGGSTYYADSVKGRFTISRDDSKNTLYLQMNSLRAEDTAVYYCAKDPYSFDYWGQGTLVTVSS | 35 nM
13 | BMS3h-198-11 (other, dAb, single VH) VH: EVQLLESGGGLVQPGGSLRLSCAASGFTFAGYEMWWVRQAPGKGLERVSAISGSGGSTYYADSVKGRFTISRDDSKNTLYLQMNSLRAEDTAVYYCARDPYSFDYWGQGTLVSVSS | 20 nM
14 | BMS3h-198-22 (other, dAb, single VH) VH: EVQLLESGGGLVQPGGSLRLSCAASGFTFAGYEMWWVRQAPGKGLERVSAISGSGGSTYYADSVKGRFTISRDDSKNTLYLQMNSLRAEDTAVYYCAKEPYSYDYWGHGTLVTVSS | 10 nM
15 | BMS3h-198-19 (other, dAb, single VH) VH: EVQLLESGGGLVQPGGSLRLSCAASGFTFAGYELWWVRQAPGKGLERVSAISGSGGSTYYADSVKGRFTISRDDSKNTLYLQMNSLRAEDTAVYYCARDPYSFDYRGQGTLVTVSS | 7.9 nM
16 | BMS3h-198-14 (other, dAb, single VH) VH: EVQLLESGGGLVQPGGSLRLSCAASGFTFAGYEMWWFRQAPGKGLERVSAISGSGGSTYYADSVKGRFTISRDDTKNTLYLQMNSLRAEDTAVYYCAKDPYSFDYWRQGTLVTVSS | 9 nM
17 | BMS3h-193-12 (other, dAb, single VK) VL: DIQMTQSPSSLSASVGDRVTITCRASQTIERRLNWYQQKPGKAPKLLIYLASRLQSGVPSRFSGSGSGTDFTLTISSLQPEDFATYYCHQYESPPLTFGQGTKVEIKR | 200 nM
18 | BMS3h-193-19 (other, dAb, single VK) VL: DIQMTQSPSSLSASVGDRVTITCRASQTIERRLNWYQQKPGKAPKLLIYLASRLQSGVPSRFSGSGSGTEFTLTISSLQPEDFATYYCHQYESPPLTFGQGTKVEIKR | 100 nM
19 | BMS3h-193-10 (other, dAb, single VK) VL: DIQMSQSPSTLSASVGDRVTITCRASQTIERRLNWYQQKPGKAPKLLIYLASRLQSGVPSRFSGSGSGTDFTLTISSLQPEDFATYYCHQYESPPLMFGQGTKVEIKR | 200 nM
20 | BMS3h-193-27 (other, dAb, single VK) VL: DIQMTQSPSSLSASVGDRVTITCRASQTIGRRLNWYQQKPGKAPKLLIYLASRLQSGVPSRFSGSGSGTDFTLTISSLQPEDFATYYCHQYESPPLTFGQGTKVEIKR | 100 nM
21 | BMS3h-193-18 (other, dAb, single VK) VL: DIQMTQSPSSLSASVGDRVTITCRASQTIGRRLNWYQQKPGKAPKLLIYLASRLQSGVPSRFSGSGSGSDFTLTISSLQPEDFATYYCHQYESPPLTFGQGTKVEIKR | 100 nM
22 | BMS3h-193-25 (other, dAb, single VK) VL: DIQMTQSPSSLSASVGDRVTITCRASQTIERRLNWYQQKPGKAPRLLIYLATRLQSGVPSRFSGSGSGTDFTLTISSLQPEDFATYYCHQYESPPLTFGQGTKVEIKR | 140 nM
23 | BMS3h-193-11 (other, dAb, single VK) VL: DIQMTQSPSSLSASVGDRVTITCRASQTIERRLNWYQQKPGKDPKLLIYLASRLQSGVPSRFSGSGSGTDFTLTISSLQPEDFATYYCHQYESPPLTFGQGTKVEIKR | 300 nM
24 | BMS3h-193-7 (other, dAb, single VK) VL: DIQITQSPSSLSASVGDRVTITCRASQTIERRLNWYQQKPGKDPKLLIYLASRLQSGVPSRFSGSGSGTDFTLTISSLQPEDFATYYCHQYESPPLTFGQGTKVEIKR | 300 nM
25 | BMS3h-193-26 (other, dAb, single VK) VL: DIQMTQSPSSLSASVGDRVTITCRASQPIERRLNWYQQKPGKAPKLLIYLASRLQSGVPSRFSGSGSGTDFTLTISSLQPEDFATYYCHQYESPPLTFGQGTKVEIKR | 100 nM
26 | BMS3h-193-30 (other, dAb, single VK) VL: DIQMTQSPSSLSASVGDRVTITCRASQSIERRLNWYQQKPGKAPKLLIYLASRLQSGVPSRFSGSGSGTDFTLTISSLQPEDFATYYCHQYESPPLTFGQGTKVEIKR | 290 nM and 116 nM
